Laboratory results taken from patent US20210332428A1.

Key:
[1] = target: human β2-adrenergic receptor (ADRB2) in nanodiscs, GRK2-phosphorylated, DNA barcoded (human) (UniProt P07550); experiment: polony co-localization, β-arr2 titration on isoproterenol-saturated phosphorylated ADRB2, one-site-specific fit
[2] = target: human β2-adrenergic receptor (ADRB2) in nanodiscs, GRK2-phosphorylated, DNA barcoded (human) (UniProt P07550); experiment: polony co-localization at varied β-arr2 concentrations; reference is ADRB2 without GRK2-mediated phosphorylation

Kd [1]: 0.95 nM
fold increase of the average co-localization ratios after the phosphorylation [2]: 3 to 11 fold
Substance: β-arr2-TolA-HaloTag (β-arrestin-2, DNA barcoded) (from UniProt P19934 131-225)
